From paper PMC8891275, “Crosstalk between CRISPR-Cas9 and the human transcriptome”

How the values were obtained:
[1] = biological target: T1, SpCas9-NLS (CAS9PROT, Sigma-Aldrich) (UniProt Q99ZW2 1-1368); assay: competition; outcompetes 20 nM labeled CDIP1 RNA; Cas9 640 nM; 1:1 to 1:32 to Cas9; 20 mM Tris-HCl pH 7.4, 150 mM KCl, 5 mM MgCl2, 5 mM EDTA, 1 mM DTT, 0.1% BSA, 5% glycerol, 0.01% Tween 20, 50 ug/mL heparin, 200 U/mL Superase-In; 30 min at room temperature; gel at 4 C; conditions: protein: commercial; tags: NLS; guide RNA hairpins
T1 sequence (Q99ZW2 whole entry): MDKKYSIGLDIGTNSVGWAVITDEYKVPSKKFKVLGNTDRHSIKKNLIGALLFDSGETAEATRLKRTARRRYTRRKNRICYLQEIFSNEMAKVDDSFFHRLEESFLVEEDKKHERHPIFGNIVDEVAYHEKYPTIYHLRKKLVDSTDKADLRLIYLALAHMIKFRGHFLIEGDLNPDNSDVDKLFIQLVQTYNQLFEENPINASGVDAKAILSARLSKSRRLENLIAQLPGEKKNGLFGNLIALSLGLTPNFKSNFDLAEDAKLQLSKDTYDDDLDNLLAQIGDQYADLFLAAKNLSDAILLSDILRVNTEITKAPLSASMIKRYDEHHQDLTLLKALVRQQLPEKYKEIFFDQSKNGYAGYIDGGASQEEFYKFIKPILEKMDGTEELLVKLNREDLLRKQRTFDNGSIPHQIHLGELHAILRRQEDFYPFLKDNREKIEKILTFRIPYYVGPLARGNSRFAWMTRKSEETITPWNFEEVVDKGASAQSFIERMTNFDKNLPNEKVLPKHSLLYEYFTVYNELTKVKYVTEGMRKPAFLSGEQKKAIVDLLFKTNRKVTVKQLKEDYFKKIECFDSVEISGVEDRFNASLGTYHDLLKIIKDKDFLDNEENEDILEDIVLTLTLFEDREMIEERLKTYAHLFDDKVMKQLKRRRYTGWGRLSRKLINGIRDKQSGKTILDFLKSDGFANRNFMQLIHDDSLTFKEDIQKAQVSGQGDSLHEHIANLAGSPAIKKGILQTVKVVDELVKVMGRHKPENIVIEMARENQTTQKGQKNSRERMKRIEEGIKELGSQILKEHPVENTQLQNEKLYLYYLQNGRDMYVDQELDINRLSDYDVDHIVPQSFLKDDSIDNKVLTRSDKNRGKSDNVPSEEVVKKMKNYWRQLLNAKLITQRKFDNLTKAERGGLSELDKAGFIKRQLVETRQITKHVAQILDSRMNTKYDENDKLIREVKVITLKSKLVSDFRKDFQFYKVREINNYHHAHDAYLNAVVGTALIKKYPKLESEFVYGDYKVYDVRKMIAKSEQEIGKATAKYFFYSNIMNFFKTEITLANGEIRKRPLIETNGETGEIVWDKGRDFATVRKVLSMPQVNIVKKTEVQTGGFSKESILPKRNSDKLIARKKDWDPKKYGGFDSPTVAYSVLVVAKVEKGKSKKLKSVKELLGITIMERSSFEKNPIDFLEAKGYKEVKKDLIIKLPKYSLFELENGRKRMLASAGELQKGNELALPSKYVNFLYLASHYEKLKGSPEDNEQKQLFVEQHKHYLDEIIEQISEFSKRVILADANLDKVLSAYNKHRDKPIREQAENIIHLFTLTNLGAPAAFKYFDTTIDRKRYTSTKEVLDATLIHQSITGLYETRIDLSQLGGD

[2] = biological target: T1, SpCas9-NLS (CAS9PROT, Sigma-Aldrich); assay: competition; does not outcompete 20 nM labeled CDIP1 RNA; Cas9 640 nM; 1:1 to 1:32 to Cas9; 20 mM Tris-HCl pH 7.4, 150 mM KCl, 5 mM MgCl2, 5 mM EDTA, 1 mM DTT, 0.1% BSA, 5% glycerol, 0.01% Tween 20, 50 ug/mL heparin, 200 U/mL Superase-In; 30 min at room temperature; gel at 4 C; conditions: protein: commercial; tags: NLS
[3] = biological target: T1, SpCas9-NLS (CAS9PROT, Sigma-Aldrich); assay: EMSA; apparent Kd, high nanomolar; 20 nM RNA, Cas9 0-1000 nM; no gRNA; 20 mM Tris-HCl pH 7.4, 150 mM KCl, 5 mM MgCl2, 5 mM EDTA, 1 mM DTT, 0.1% BSA, 5% glycerol, 0.01% Tween 20, 50 ug/mL heparin, 200 U/mL Superase-In; 30 min at room temperature; gel at 4 C; conditions: protein: commercial; tags: NLS; label: 5' IRDye 800CW; GU-loop upstream of 5-nt stem

B1: Cas9 gRNA (structured_RNA)
RNA: AUUAAUCGGUGGGAGUAUUCGUUUAAGAGCUAUGCUGGAAACAGCAUAGCAAGUUUAAAUAAGGCUAGUCCGUUAUCAACUUGAAAAAGUGGCACCGAGUCGGUGCU
Does B1 bind [1]?
Result: binds

B2: non-specific (N.S.) RNA, unlabeled (ssRNA)
RNA: CUAUGCGGCAUCAGAGCAGAUUGUACUGAGAGUGCACCAUAUGCGGUGUGAAAUACCGCACAGAUGCGUAAGGAGAAAAUACCGCAUCAGGCGCCAUUCGCCAUUCAGGCUGCGCAACUGUUGG
Does B2 bind [2]?
Result: no binding

B3: CDIP1 5' UTR RNA (Fig. 2) (structured_RNA)
RNA: UACCCGCCUCCUUGUGACAGAAGUGCGACUGCCAGCUGCCGAGGCGUUCGGUCCUGCUGUUGCGGCCGCUGCCCCAGGGCUGCGGGGACGGUGAGUCGACUGGA
How did the Kd [3] turn out when B3 was run?
Its Kd is over 100 nM.
